T1: αVβ3(N339/S) on HEK293T cells (human, UniProt P06756 31-1048; P05106 27-788)
T1 construct: also called αVβ3^N/S; active αVβ3(N339/S)
T1 chain 1: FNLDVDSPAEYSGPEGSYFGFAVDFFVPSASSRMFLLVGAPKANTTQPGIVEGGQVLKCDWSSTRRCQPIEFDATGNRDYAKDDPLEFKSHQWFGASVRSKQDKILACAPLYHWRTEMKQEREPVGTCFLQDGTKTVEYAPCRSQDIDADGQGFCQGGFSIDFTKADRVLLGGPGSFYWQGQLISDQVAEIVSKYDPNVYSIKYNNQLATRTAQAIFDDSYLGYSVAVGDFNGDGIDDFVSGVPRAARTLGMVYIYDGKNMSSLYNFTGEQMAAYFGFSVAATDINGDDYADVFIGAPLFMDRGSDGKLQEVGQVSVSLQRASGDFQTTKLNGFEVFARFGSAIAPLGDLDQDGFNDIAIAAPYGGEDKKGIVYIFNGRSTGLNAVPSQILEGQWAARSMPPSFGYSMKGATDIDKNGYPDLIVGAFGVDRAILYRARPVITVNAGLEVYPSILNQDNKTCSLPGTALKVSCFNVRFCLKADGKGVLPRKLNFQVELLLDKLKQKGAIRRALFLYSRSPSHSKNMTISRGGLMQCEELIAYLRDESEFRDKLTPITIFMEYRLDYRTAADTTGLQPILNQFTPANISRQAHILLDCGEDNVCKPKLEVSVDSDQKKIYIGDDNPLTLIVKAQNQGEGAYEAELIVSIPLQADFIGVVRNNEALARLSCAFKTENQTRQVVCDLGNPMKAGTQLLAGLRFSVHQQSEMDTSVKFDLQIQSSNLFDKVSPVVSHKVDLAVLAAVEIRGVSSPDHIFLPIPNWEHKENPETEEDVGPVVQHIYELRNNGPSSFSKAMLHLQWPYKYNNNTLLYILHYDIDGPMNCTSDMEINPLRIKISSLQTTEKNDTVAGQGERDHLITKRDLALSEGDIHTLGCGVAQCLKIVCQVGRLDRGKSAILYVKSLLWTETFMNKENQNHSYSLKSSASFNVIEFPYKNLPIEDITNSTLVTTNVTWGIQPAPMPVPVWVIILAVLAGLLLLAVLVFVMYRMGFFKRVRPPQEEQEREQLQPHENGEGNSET
T1 chain 2: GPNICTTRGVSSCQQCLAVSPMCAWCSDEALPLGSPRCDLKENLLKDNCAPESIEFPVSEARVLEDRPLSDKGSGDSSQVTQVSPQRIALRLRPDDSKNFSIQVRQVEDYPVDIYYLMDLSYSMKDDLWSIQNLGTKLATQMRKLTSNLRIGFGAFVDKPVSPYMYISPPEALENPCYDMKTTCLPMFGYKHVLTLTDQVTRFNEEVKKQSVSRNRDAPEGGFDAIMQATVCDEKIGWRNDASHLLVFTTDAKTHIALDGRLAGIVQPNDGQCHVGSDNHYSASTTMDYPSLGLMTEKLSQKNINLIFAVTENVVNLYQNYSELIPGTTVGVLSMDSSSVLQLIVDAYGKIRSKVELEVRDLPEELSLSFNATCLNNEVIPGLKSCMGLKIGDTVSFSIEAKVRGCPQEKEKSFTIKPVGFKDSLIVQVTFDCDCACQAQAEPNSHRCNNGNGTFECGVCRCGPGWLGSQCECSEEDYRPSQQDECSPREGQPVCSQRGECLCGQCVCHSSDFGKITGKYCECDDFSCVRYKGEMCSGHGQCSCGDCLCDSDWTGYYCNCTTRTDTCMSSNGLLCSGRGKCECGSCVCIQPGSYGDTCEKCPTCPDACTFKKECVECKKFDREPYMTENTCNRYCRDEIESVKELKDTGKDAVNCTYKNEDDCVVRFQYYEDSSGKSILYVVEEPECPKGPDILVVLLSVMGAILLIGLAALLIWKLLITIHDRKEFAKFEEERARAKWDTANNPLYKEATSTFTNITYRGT

T2: wild-type integrin αVβ3 on cells (K562-αVβ3, M21, HEK293T) (human, UniProt P06756 31-1048; P05106 27-788)
T2 construct: also called WT αVβ3; cellular αVβ3
T2 chain 1: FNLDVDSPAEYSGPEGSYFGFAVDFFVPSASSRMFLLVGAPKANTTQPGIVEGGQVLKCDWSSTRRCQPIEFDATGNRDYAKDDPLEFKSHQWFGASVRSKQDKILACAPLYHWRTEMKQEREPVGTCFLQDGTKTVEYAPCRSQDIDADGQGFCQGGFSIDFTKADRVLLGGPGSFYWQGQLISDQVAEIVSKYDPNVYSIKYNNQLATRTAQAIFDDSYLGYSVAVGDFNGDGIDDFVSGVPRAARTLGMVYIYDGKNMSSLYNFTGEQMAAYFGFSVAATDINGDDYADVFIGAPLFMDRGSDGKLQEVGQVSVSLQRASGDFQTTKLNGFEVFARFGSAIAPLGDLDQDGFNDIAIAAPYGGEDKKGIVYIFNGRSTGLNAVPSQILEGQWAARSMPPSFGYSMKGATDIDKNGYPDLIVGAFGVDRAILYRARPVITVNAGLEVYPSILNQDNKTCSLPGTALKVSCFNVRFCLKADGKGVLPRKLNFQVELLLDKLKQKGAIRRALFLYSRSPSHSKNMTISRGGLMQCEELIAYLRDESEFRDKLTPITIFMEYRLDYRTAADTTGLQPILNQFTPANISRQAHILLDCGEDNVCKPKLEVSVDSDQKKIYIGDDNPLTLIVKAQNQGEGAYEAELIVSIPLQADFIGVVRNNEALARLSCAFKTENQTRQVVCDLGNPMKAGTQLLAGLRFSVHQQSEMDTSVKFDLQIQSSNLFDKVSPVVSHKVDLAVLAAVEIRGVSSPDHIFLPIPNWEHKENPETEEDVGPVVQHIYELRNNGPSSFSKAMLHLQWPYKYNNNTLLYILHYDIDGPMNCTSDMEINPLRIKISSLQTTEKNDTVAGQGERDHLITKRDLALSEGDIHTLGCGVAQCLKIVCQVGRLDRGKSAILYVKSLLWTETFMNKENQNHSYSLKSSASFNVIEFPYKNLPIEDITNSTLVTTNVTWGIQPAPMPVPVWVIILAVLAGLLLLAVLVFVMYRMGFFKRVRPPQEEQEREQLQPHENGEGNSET
T2 chain 2: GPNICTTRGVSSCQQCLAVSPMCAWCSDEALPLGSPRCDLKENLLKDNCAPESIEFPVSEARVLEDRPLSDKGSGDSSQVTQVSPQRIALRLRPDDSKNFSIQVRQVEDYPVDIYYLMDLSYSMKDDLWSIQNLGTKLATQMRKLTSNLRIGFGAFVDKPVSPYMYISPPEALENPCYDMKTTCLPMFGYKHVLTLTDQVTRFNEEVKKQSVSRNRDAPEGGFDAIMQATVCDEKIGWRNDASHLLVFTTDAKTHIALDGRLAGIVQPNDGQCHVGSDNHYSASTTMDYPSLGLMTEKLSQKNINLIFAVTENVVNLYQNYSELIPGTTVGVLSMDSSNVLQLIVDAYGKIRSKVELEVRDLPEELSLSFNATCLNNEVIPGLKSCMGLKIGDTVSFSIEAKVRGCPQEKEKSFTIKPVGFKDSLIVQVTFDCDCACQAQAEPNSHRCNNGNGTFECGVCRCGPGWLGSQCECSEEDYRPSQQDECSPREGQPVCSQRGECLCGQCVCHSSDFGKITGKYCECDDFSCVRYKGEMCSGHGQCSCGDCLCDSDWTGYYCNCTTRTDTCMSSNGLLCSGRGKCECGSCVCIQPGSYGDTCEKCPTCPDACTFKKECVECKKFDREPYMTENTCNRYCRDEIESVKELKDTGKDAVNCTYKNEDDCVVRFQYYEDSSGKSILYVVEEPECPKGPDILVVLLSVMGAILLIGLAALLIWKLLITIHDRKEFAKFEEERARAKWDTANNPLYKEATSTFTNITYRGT


Columns and labels:
[1] = target: T1, αVβ3(N339/S) on HEK293T cells; assay: flow cytometry, fluorescein-tagged hFN10-G on cells
[2] = target: T2, wild-type integrin αVβ3 on cells …; assay: flow cytometry, fluoresceinated fluid-phase FN10 on K562-αVβ3 cells
[3] = target: T1, αVβ3(N339/S) on HEK293T cells; assay: flow cytometry, fluoresceinated fluid-phase FN10 on transfected HEK293T cells, Ca2+/Mg2+

Row | Binder | binding result [1] | fold increase of binding (Mn2+ over Ca2+/Mg2+) [2] | fold increase of binding (N339/S over wild-type αVβ3) [3]
1 | hFN10-G (designed binder, Fluorescein-tagged in the assay; also called mhFN10) SDVPRDLEVVAATPTSLLISWDAPAVTVRYYRITYGETGGNSPVQEFTVPGSKSTATISGLKPGVDYTITVYAVTPGRGDWNEGSKPISINY | no binding |  | 
2 | wild-type 10th type-III RGD-domain of human fibronectin (wtFN10) (ligand, Expressed in bacteria with an N-terminal His tag (S1417-T1509) and a thrombin cleavage site; also called wild-type FN10) not shown |  | 10 fold | 6 fold
